Results on six molecules are retold here after patent US7892769B2, “Processing of EphA4 polypeptide by γ-secretase activity” (Eisai R&D Management Co., Ltd., priority 2007, dated 2011).

The test system of one assay is NIH3T3 cells. Description: Lamellipodia formation (Rac1 activation indicator) after gene transfer into NIH3T3 cells. The settings on record: for ratios of lamellipodia forming cells: EICD deletion mutants transfected separately, compared with HA, FIG. 8; for lamellipodia formation promotive capacity: cotransfected with Rac1N17 (dominant negative form of Rac1); for lamellipodia formation promotive capacity / lamellipodia formation: FIG. 6, FIG. 7; for lamellipodia formation: fragment gene transfected alone, vs HA control. It counts as cell-based. The protocol: In order to examine whether or not EICD produced by γ-secretase is involved in the signaling mechanism of Rho family molecules, and activation of which molecule EICD is involved in, gene transfer into NIH3T3 cells was performed, followed by analysis of the effect of EICD in the rearrangement of actin cytoskeletons in which Rho family molecules are involved. In the rearrangement, the following facts are known: when RhoA is activated, actin fibers called stress fibers are formed at the bottom of cells; when Cdc42 is activated, protrusions called filopodia are formed; when Rac1 is activated, structures called lamellipodia are formed. The effect of EICD was examined with these formations as indicators.
NIH3T3 cells were cultured in 10% CBS (flow)/Antibiotic-Antimycotic (Invitrogen)/DMEM (Invitrogen) under 5% CO2 at 37° C. Genes encoding HA-EICD (SEQ ID NO: 93) or EICD+Rac1N17 (SEQ ID NO: 200) were transfected into the cells with Lipofectamine 2000 (Invitrogen). Eighteen hours later, the cells were replated in wells provided with poly-L-lysin (SIGMA)-coated 13 mm cover glass. Eighteen hours thereafter, the cells were fixed in 2% paraformaldehyde (Wako), treated with 0.25% TritonX-100 and blocked with BlockAce (Snow Brand Milk Products). After the blocking, the cells were treated with rat anti-HA antibody (Roche), followed by reaction with FITC-linked anti-rat IgG antibody (Jackson) and Alexa Fluor phalloidin 546 (Molecular probes).
In the above-mentioned Example 6, the EphA4 fragment used in Example 5 (SEQ ID NO: 197) was transfected instead of the HA-EphA4 intracellular fragment and lamellipodia formation was analyzed in the same way.
Genes encoding HA, HA-EICD (SEQ ID NO: 93) and various EICD mutants (HA-EICD Δ1 to HA-EICD Δ4) prepared in (1) above were transfected to NIH3T3 cells separately in the same manner as described in Examples 6 and 7. Then, ratios of lamellipodia forming cells were examined. In the various EICD mutants described below, capital letters appearing at the 5′ end of the nucleotide sequences represent a nucleotide sequence encoding HA tag. Small letters appearing at the 3′ end represent a nucleotide sequence encoding EphA4 intracellular fragment.

Assay [1] deals with primary culture of rat hippocampal neurons. Put plainly: Spine formation analysis by overexpression of EphA4 fragments in primary culture of rat hippocampal neurons. It counts as cell-based. Particulars: fragment gene transfected on day 9 of culture, counted twelve days after gene transfer, GFP-visualized; vs HA control; FIG. 4, FIG. 5. As for the experimental part:
Primary culture of rat hippocampal neurons were cultured in the same manner as described in Example 2. On day 9 of culture, gene transfer experiment was performed using Lipofectamine 2000 (Invitrogen) according to the manual. In order to visualize the morphology of spines, pcDNA3.1Syn1 GFP (SEQ ID NO: 306) was co-transferred into the neurons. Twelve days after the gene transfer, the neurons were fixed with 2% paraformaldehyde, treated with 0.25% TritonX-100 and blocked with BlockAce (Snow Brand Milk). After the blocking, the neurons were treated with rabbit anti-GFP antibody (Invitrogen) and rat anti-HA antibody (Roche); and reacted with FITC-linked anti-rabbit IgG antibody (Jackson), Cy3-linked anti-mouse IgG antibody (Jackson) and Cy5-linked anti-rat IgG antibody (Jackson). […] The spines (protuberances formed on dendrites) which were visualized by the expression of GFP were counted. Image data were quantitatively determined with image analysis software Metamorph (Molecular Devices). pcDNA3.1Syn1 GFP may be obtained by the procedures described below.
In the above-mentioned Example 4, the gene with an HA tag added to its N-terminus (SEQ ID NO:197), which is one of the two cleaved fragments, was transfected instead of the HA-EphA4 intracellular fragment and spine formation was analyzed in the same way based on the cleavage site specified in Example 3.

B1: EICD Δ4: HA-tagged EphA4 intracellular deletion mutant, 701 amino acid-Stop, SEQ ID NO: 174 (protein, listed as Rattus norvegicus)
chain: MDYPYDVPDYATRVDYMENGSLDAFLRKNDGRFTVIQLVGMLRGIGSGMKYLSDMSYVHRDLAARNILVNSNLVCKVSDFGMSRVLEDDPEAAYTTRGGKIPIRWTAPEAIAYRKFTSASDVWSYGIVMWEVMSYGERPYWDMSNQDVIKAIEEGYRLPPPMDCPIALHQLMLDCWQKERSDRPKFGQIVNMLDKLIRNPNSLKRTGPESSRPNTALLDPSSPEFSAVVSVGDWLQAIKMDRYKDNFTAAGYTTLEAVVHMSQDDLARIGITAITHQNKILSSVQAMRTQMQQMHGRMVPV
modifications: HA tag
Take B1: in the assay on NIH3T3 cells, the “ratios of lamellipodia forming cells” value is “almost the same level as that of HA”.

B2: HA-γ-fragment: γ-secretase-cleaved rat EphA4 intracellular fragment with N-terminal HA tag, SEQ ID NO: 198, expressed by transfection (protein)
chain: MSALLILALVGAAVAGSEFTRVEVTTNTVPSRIIGDGANSTVLLVSVSGSVVLVVILIAAFVISRRRSKYSQAKQEADEEKHLNQGVRTYVDPFTYEDPNQAVREFAKEIDASCIKIEKVIGVGEFGEVCSGRLKVPGKREICVAIKTLKAGYTDKQRRDFLSEASIMGQFDHPNIIHLEGVVTKCKPVMIITEYMENGSLDAFLRKNDGRFTVIQLVGMLRGIGSGMKYLSDMSYVHRDLAARNILVNSNLVCKVSDFGMSRVLEDDPEAAYTTRGGKIPIRWTAPEAIAYRKFTSASDVWSYGIVMWEVMSYGERPYWDMSNQDVIKAIEEGYRLPPPMDCPIALHQLMLDCWQKERSDRPKFGQIVNMLDKLIRNPNSLKRTGPESSRPNTALLDPSSPEFSAVVSVGDWLQAIKMDRYKDNFTAAGYTTLEAVVHMSQDDLARIGITAITHQNKILSSVQAMRTQMQQMHGRMVPVAAAMDYPYDVPDYA
modifications: N-terminal HA tag; synthetic DNA
B2: in assay [1], the number of spines entry is “increases the number of spines”. Besides, in the assay with NIH3T3 cells, the “lamellipodia formation promotive capacity” value is “disappeared completely” and the lamellipodia formation result is “promotes lamellipodia formation”.

B3: EICD Δ1: HA-tagged EphA4 intracellular deletion mutant, 587 amino acid-Stop, SEQ ID NO: 168 (protein, listed as Rattus norvegicus)
chain: MDYPYDVPDYATRVDKHLNQGVRTYVDPFTYEDPNQAVREFAKEIDASCIKIEKVIGVGEFGEVCSGRLKVPGKREICVAIKTLKAGYTDKQRRDFLSEASIMGQFDHPNIIHLEGVVTKCKPVMIITEYMENGSLDAFLRKNDGRFTVIQLVGMLRGIGSGMKYLSDMSYVHRDLAARNILVNSNLVCKVSDFGMSRVLEDDPEAAYTTRGGKIPIRWTAPEAIAYRKFTSASDVWSYGIVMWEVMSYGERPYWDMSNQDVIKAIEEGYRLPPPMDCPIALHQLMLDCWQKERSDRPKFGQIVNMLDKLIRNPNSLKRTGPESSRPNTALLDPSSPEFSAVVSVGDWLQAIKMDRYKDNFTAAGYTTLEAVVHMSQDDLARIGITAITHQNKILSSVQAMRTQMQQMHGRMVPV
modifications: HA tag
In the case of B3, the “ratios of lamellipodia forming cells” value with NIH3T3 cells is reported as “lamellipodia forming cells are increased”.

B4: HA-EICD: rat EphA4 intracellular domain (amino acid 571 to stop) with N-terminal HA tag, SEQ ID NO: 94, expressed by transfection (protein, listed as Rattus norvegicus)
chain: MDYPYDVPDYATRVERRRSKYSQAKQEADEEKHLNQGVRTYVDPFTYEDPNQAVREFAKEIDASCIKIEKVIGVGEFGEVCSGRLKVPGKREICVAIKTLKAGYTDKQRRDFLSEASIMGQFDHPNIIHLEGVVTKCKPVMIITEYMENGSLDAFLRKNDGRFTVIQLVGMLRGIGSGMKYLSDMSYVHRDLAARNILVNSNLVCKVSDFGMSRVLEDDPEAAYTTRGGKIPIRWTAPEAIAYRKFTSASDVWSYGIVMWEVMSYGERPYWDMSNQDVIKAIEEGYRLPPPMDCPIALHQLMLDCWQKERSDRPKFGQIVNMLDKLIRNPNSLKRTGPESSRPNTALLDPSSPEFSAVVSVGDWLQAIKMDRYKDNFTAAGYTTLEAVVHMSQDDLARIGITAITHQNKILSSVQAMRTQMQQMHGRMVPV
modifications: N-terminal HA tag
With B4, in assay [1], the number of spines result is given as “increases the number of spines”. Also, in the assay with NIH3T3 cells, the “lamellipodia formation promotive capacity” value was “disappeared completely” and the lamellipodia formation result is reported as “lamellipodia formation is promoted”.

B5: EICD Δ3: HA-tagged EphA4 intracellular deletion mutant, 661 amino acid-Stop, SEQ ID NO: 172 (protein, listed as Rattus norvegicus)
chain: MDYPYDVPDYATRVDDKQRRDFLSEASIMGQFDHPNIIHLEGVVTKCKPVMIITEYMENGSLDAFLRKNDGRFTVIQLVGMLRGIGSGMKYLSDMSYVHRDLAARNILVNSNLVCKVSDFGMSRVLEDDPEAAYTTRGGKIPIRWTAPEAIAYRKFTSASDVWSYGIVMWEVMSYGERPYWDMSNQDVIKAIEEGYRLPPPMDCPIALHQLMLDCWQKERSDRPKFGQIVNMLDKLIRNPNSLKRTGPESSRPNTALLDPSSPEFSAVVSVGDWLQAIKMDRYKDNFTAAGYTTLEAVVHMSQDDLARIGITAITHQNKILSSVQAMRTQMQQMHGRMVPV
modifications: HA tag
With B5, in the assay on NIH3T3 cells, the “ratios of lamellipodia forming cells” value is given as “almost the same level as that of HA”.

B6: EICD Δ2: HA-tagged EphA4 intracellular deletion mutant, 622 amino acid-Stop, SEQ ID NO: 170 (protein, listed as Rattus norvegicus)
chain: MDYPYDVPDYATRVDKIEKVIGVGEFGEVCSGRLKVPGKREICVAIKTLKAGYTDKQRRDFLSEASIMGQFDHPNIIHLEGVVTKCKPVMIITEYMENGSLDAFLRKNDGRFTVIQLVGMLRGIGSGMKYLSDMSYVHRDLAARNILVNSNLVCKVSDFGMSRVLEDDPEAAYTTRGGKIPIRWTAPEAIAYRKFTSASDVWSYGIVMWEVMSYGERPYWDMSNQDVIKAIEEGYRLPPPMDCPIALHQLMLDCWQKERSDRPKFGQIVNMLDKLIRNPNSLKRTGPESSRPNTALLDPSSPEFSAVVSVGDWLQAIKMDRYKDNFTAAGYTTLEAVVHMSQDDLARIGITAITHQNKILSSVQAMRTQMQQMHGRMVPV
modifications: HA tag
As for B6, the “ratios of lamellipodia forming cells” value in the assay on NIH3T3 cells is on record as “almost the same level as that of HA”.
